Test results: the DeepSol protein solubility set

Assay: soluble on expression in E. coli; label from the status in PepcDB or PDB records

Row | Sequence | soluble on expression in E. coli
1 | MGSDKIHHHHHHMAVGKNNNKMGKKGGKKKAVDPFSRKEWYDIKAPNMFNTRQVGKTLINRTQGTKIASEGLKGRVFEVSLGDLNNSEADFRKFKLIAEDVQGKNVLTNFHAMSMTHDKLCSIVKKWHTLIEANTAVKTTDGYTLRVFVIAFTKKSVNQVKKTSYTKTSKIRKIRSEMIGCIEKEVTGCDLKEVVSKLIPDSIGKDIEKTCSKLYPLQEVYIRKVKIIKRPKVDLGRLHDLHGDSITVGADGEKVDRPDDYEPPVQQEV | not soluble
2 | MGSDKIHHHHHHMAVQAKQCKAVLLCGYYGEHNLGDDALLQVLLEELPSSLQPWITANDSNVIKGLAPKAQVINRRSLLESIRALFQVQGLILGGGSLLQDSTSFKSLIYYLILIVIAQQRGVPVLLWGQGLGPFRYRLSRWMVRRVLRRVQAISWRDPDSFQLAEQWCLPSPMLMAPDPVWQLPSRSWEGGQAVVLCWRSTSMLDRFGWQHLLQALEMILTDIDAPVHWLAFHQRQDEELFRKLDRQGLISSSLRSRSHSFAFDSLTEVMNQFTMARLVLPMRLHALILAQLAGSPTVALSYDPKVSSAALMANVPFTDLQSLPDIRLLAGLWGQVLDVPPDLGKIEAIRKHASQHSKIIDKVFN | not soluble
3 | MGSDKIHHHHHHMAVRPYWKGYLKLSLVTCPVQMMPATSESEKVRFHTLNRETQNRVVSHYVDSVTGKEVKDEDEVKGYQRGENEYIILEDEELENVALDSTKTIDISTFTPRDSVEWIWLDTPYYLSPNDPVGQEAFSVIRDAMEAQNMVGISRLVISRRERAVMLEPRGKGIVLWTLRYGDEVRDEDTYFAGIDDEETADREMMPLVQQLIKKQTKHWDAKMVIDPVQERLLDIIAAKKKALKKSARAKPSAPAKSTPSNVINIMDALKKSVAAENRSSK | not soluble
4 | MGSDKIHHHHHHMAVVCRRITASSRTYSLSALTRCLQEEAAAIAVAAERLSSSQVEKALVLLERCSDQRAKLVITGVGKSGIVARKIAATFSSIGLMALYLNPLDAMHGDLGVVAQEDVCLLLSNSGETAELLEVLPHLKRRGTARIALVGKPDSSLARGSDVVLEASVDREVCPLNLAPTASTAVAMAIGDALAAIWMERRNISPADFAFNHPAGSLGKQLTLTASDLMVPVEKVQPLQPNTSLQEVICKLTQDGIGSGWVEDPSTAGLLLGLITDGDLRRALRDHSAENWASLSAAELMTADPITVDADLLAVEAIKQMECNRRKPISVLPVVGPDSSGNLLLGLLRLHDLIQAGLT | not soluble
5 | MGSDKIHHHHHHMAYFAEIFQIPFEESWGYVTNGGTEGNMFGCYLARELFPDSTLYYSKDTHYSVGKIAKLLQMKSCVIESLDNGEIDYDDLIHKIKTNKESHPIIFANIGTTMTGAIDDIEMIQERLAQIGIMRRDYYIHADAALSGMILPFVDHPQAFSFAHGIDSICVSGHKMIGSPIPCGIVVAKRQNVERISVDVDYISTRDQTISGSRNGHTVLLMWAAIRSQTNLQRRHRIQHCLKMAQYAVDRFQAVGIPAWRNPNSITVVFPCPSEHIWKKHYLATSGNMAHLITTAHHRDTRQIDSLIDDVIFDLQGASKRTVGF | not soluble
6 | MGSDKIHHHHHHMCNSYLEYTAAGVSDLRPYQPGKPLAELERELGIRDAIKLASNENPLGPSPLALAAVREVLPALAQYPEGSAPELRALLARQLDLDPGQFIFGNGSDQVVELAVRALAGPGTEVIVSQYAFAAYAIAAQASGATVRVAPARDYGHDLDAMASLLNANTRLVFIANPNNPTGTYLTADALETFIDSVPSHALVVLDEAYLELMDAADYPDGRRWLRRFGNLMLTRTFSKAYGLAGLRCGYGIGHPDLMAVLERVRQPFNVNTLAQVAAHAALTDRAHLQATLANNRQGIVALRDGLCNLGLTILPPAGNFTAFAVPGGGQRVYEALLLRGVIVRPLTPYGMPDHLRVSVGLPVENQRFLTMLGEVL | not soluble
7 | MGSDKIHHHHHHMDDFDTPVTGNAYGNNTIKEQRTISIANLKEKYSSVISANQFQTVTEETRISGVVVGDDESGNIYKQLIVADETGAIVVGINSTGIYANCPVGQKVVIDCENLNVGGYGMQAQIGTTYKGAIGRMDLAVWLDHVRVINKPQLWYDELIPMELTGAQLKAYDKDLAPVLVMFKDVTIKEADGTATFAPEDLKDGGNGVNRTLVLDDNSTLTFRTSTYANFSTEVMPTGKINVIGILSRYNSTWQIVARTYSDIQRNN | not soluble
8 | MGSDKIHHHHHHMDELLEKAKKVREAWDVLRNATTREKNKAIKKIAEKLDERRKEILEANRIDVEKARERGVKESLVDRLALNDKRIDEMIKACETVIGLKDPVGEVIDSWVREDGLRIARVRVPIGPIGIIYESRPNVTVETTILALKSGNTILLRGGSDALNSNKAIVSAIREALKETEIPESSVEFIENTDRSLVLEMIRLREYLSLVIPRGGYGLISFVRDNATVPVLETGVGNCHIFVDESADLKKAVPVIINAKTQRPGTCNAAEKLLVHEKIAKEFLPVIVEELRKHGVEVRGCEKTREIVPDVVPATEDDWPTEYLDLIIAIKVVKNVDEAIEHIKKYSTGHSESILTENYSNAKKFVSEIDAAAVYVNASTRFTDGGQFGFGAEIGISTQRFHARGPVGLRELTTYKFVVLGEYHVRE | soluble
9 | MGSDKIHHHHHHMDEQIKKAIEAHALAEYPRECCGLVVKTESGEIYVRCRNLAAVPTDQFALASEDYAAAEDMGEIVALVHSHPGASAQPSEADRAMCERSGIEKWVIVSLGVQADGSIGIDDWCEFEPAGYVTRLIGRQFVHGVHDCYAIVRDWYLAERGVLLPDFEREDDWWNDGRSNLYLNHYQDAGFLDVGRGVTLQVGDVLLMQIRSKNDVPNHAGVYLGDGQFLHHMHGRLSARAVWGGMWADCCTTVLRYAGGRK | not soluble
10 | MGSDKIHHHHHHMDEQTHTHLSRRRTLTASAGVLSAGLAGCITSGDTDGDPESGPTVAVASFFSFYDFARKIVADTPITVRNLIPTGLHGHGWEPNASITKEILDADALIHVGPDFQPWVDRAIESLDDDDADTRRINVRDGVELVDLAASLDRDEEGIGQNRGKDPHFWLDPNRAKQSIDNLTEGFVQLAPSHENTLRTNAAAYKSGVLDELDDAYAAIFDRADRDVVQLAAHNAFQYLGTAYDIEMRPLVVNLAASGTVKASDIMDAKQTIDDNDITYIGAAVFETRRPAEQLLSETDVEAYYPVTPYAGVREDWVQQGWGYEEIARNINMPTFKLLLGNAAPDDVGGAEWNATWRNFE | not soluble
11 | MGSDKIHHHHHHMDFRQFEYVKTIAEEKSISRAAERLYISQPSLSQYIIRLENSLGVKLFDRTSATITLTFAGEKYIETARNIINLNNQLTKELNDIANLSKGRVIIGVPSQAGRYILPLVIPKFYKEYPNIEIIVEENIVSELEKMLLEGKIDIAILTLPVQHEKITYESIMNERIFLIAPKKHPICSVDGRISFNFIRNEKFILLKKGQRIRLIVDDIFSRIGAKPNIILEITNLDAAYRMASSGMGFTIVPENVLYLLNTNGKENDFIIDSLEHTLVVAYRKGEYLTRASREFIANLKGVMKMDYNNKNHNSVSYKKIYID | not soluble
12 | MGSDKIHHHHHHMDKALLHFDNSYARDLEGFYAPWQAATAPAPRLLLLNQALAEELGLDSATLDDELGAAIFSGNQVPEGALPLAQAYAGHQFGHFSPQLGDGRALLLGELIDRHGRRRDMQLKGSGRTPFSRGGDGKAALGPVLREYVIGEAMHALGIPTTRALAAVTTGETVRRETWLPGAILTRIAASHIRVGTFQFFAARNENVRVKQLADYTIARHYPPLKGADNPYLELFAAVSAAQAALIARWMLVGFIHGVMNTDNMSIAGETIDYGPCAFMDNYDPETVFSSIDAHGRYAYAHQPLIAQWNLTRFAETLIDLVHPDPDEAARLLTEQLNEFPKLYTRHWLDGMRAKMGLATAEDGDLALAQALLSAMEGQNADFTQVFRGLSAAVRGDPAQVRAHFVNQAPFDLWLAQWQARLAHESATAEARAEAMDQVNPLYIPRNHKVEEALAAATLNQDLTPFKALLAVLERPFAERPGLESYTQPAPEDFGPFKTFCGT | not soluble
13 | MGSDKIHHHHHHMDKDERLHYLDSLERLRGSKVLVYFAYTPLDDSILVPLYEQLKAIGHTEKIDLLLHSYGGAVDTPYKVVMLIREFCNEFGVIVPFVAKSAASMLVLGADEVVMGPISELGPIDPLIKHPIYKELWVPVQAIRYCIDYLQRSIESNPNPELVTGIITPMINKLDPWLIGDYEKALKASHQYAEALLSRYMLKDNPELVPVVTRALTEGYFSHGYPIGRQEAKELGLRVTEAEDELWDVIWSLYRGYEELFSTCDSGDRV | not soluble
14 | MGSDKIHHHHHHMDKIRVIELGSNISAPLVGTILADLGAEVIKVEPPPYGDDRRRVKPEINGISVYFASTNRGKKSVVINLKSDEGYEIFQRLVKTADVIVTNYRPSALKRLKVDYESVKRINPKIIYCSITGFGNLTEEADRPAYDPIILALSGLMDMTGEENPVKFATSISDITTGLLATVMILWALNKGGPTFIDVPMIYTQFYLTLEDAYMYLNTGKVPKRMGSAHRYLVPYQAFKVVDGYIYVAVFNDEQYLKLCKALNREDLCKFDTLQKRVENRDYLIKELGKIFEKNTRDYWVDLLSKADVPVAPVLSLEQAFKKYGNRLVYEIEGVKYIDFPINITSNKSKAPRLGENTKEVLLELGYSEGEINRLAEKGIIMLI | not soluble
15 | MGSDKIHHHHHHMDLDRLQTFLKVVQYGSFQQVAAREYRSQRTVSKQMTQLENELKVTLFDRGQNRIQLTPQGRLFWASAQDIVNNYTTALTELRQFNVPTDQILRVGYFSAFEQRLLLPALYDLKQQHSELQLVVRQGSNEHLAQQVADGSLDLALSINYGRPAVTPESQLTAVPIYHNQMVIGVSRLNPLSRLSQLPPSALATLPILYYSPESSTFLLESFLASAPFIQDYEQIRRVSSAEQMHLLVALNQALAFYPAGLVPTKHDEQVAYLPITDAAQQGYDIVALLKSNRSRPLIAKLVQRLKANAKSDE | not soluble
16 | MGSDKIHHHHHHMDLTHIHPEFRHILGMSDKDRMAFLDEPRWIGYAQANRLLDNLRSLMEKPVRPRMPNLLIVGDSNNGKTTVIRRFQKLHGEGYVNEDAEPVKPVIVSEAPPSADEKGLYIAILERFWTPYRATDSASKLRYQVVHLMRDCHVRILVIDEFHSLLTGTVTKQREVMNAIKLLCNELAIPIVGVGIREAVRVLHTDPQHASRFDVVTLPPWELNPEFQQLVASFERVLPLKKPSLLHQSETVSLLFAISEGNLGNLHRLLVECAVEAIKTGTEKIDKSIIEGKQWLRPTHGIRELV | not soluble
17 | MGSDKIHHHHHHMDLTTAQVSRLISELETRLGTKLIQRSTRQQALTDIGATYAERCRQVISMVDEAEAEVTGTASKPKGRLRVLSMGSFGHHYVFPVMAEFCKHYPELTVEYTTSQYVPDLLAKGVDVSLYLTESLTDSRFVARRIGTIFSVLCASPAYLEKHGVPKSPEDLKNHACLRLVNPSITPDWHLLNANGESYQIDIGGQLIADNPELLLDVVQQDMGVALLPMFSALDAVQNGRLCHILPEWRSPDIGVYTLLPSRHFIDAKTRAWLDWVEEYISPKIEMDASYFYK | not soluble
18 | MGSDKIHHHHHHMDMLSFELIRDGNRPLYEQLYQQIRQEIIEGRLAYGTKLPSKRKLGQFLNLSQTTIELAYQQLVAEGYVESVSRKGYFVLAYEELAYVKTTPLPTSQRSNQQPAMRYDFHPSKIDGSSFPFSRWRKHAKDVIDEQHQSLVSLGHPQGDLSLRLEIATYLYHSRGVVCSPEQIIIGSGVEQLLPHIVFLLGKTTTYGIEDPGYHATRLILKSHERSAVPIPVDQNGLVIPSLVQSPVDVMYVTPAHQFPSGSILSVNRRRQLLNWAAASDRRYIIEDDYDSEFRYSGKSIPSLHSMDSERVIYLSTFSKSLMPSLRIGYMVLPRPLLERYQTEFPYYTCSVSRFDQTILTRFMKEGDFEKHLNRMRKIYRRKLDVVVHALRDVPFLKLTGESAGLHVVLSVSNGMGEQELLRRAKDSSIQVYGLSDYAQLPLSTAYPQIVLGFASLTEQQLMQGLTELVTAWQLK | not soluble
